How the values were obtained:
Assay in all cases: cell_activity
ZFN 25031 (synthetic) = conditions: pair with 12942, PBMC, 37C day 3
ZFN 25012 (synthetic) = conditions: pair with 12942, PBMC, 37C day 3
ZFN 25023 (synthetic) = conditions: pair with 12942, PBMC, 37C day 3
ZFN 25010 (synthetic) = conditions: pair with 12942, PBMC, 37C day 3
ZFN 25013 (synthetic) = conditions: pair with 12942, PBMC, 37C day 3
ZFN 25041 (synthetic) = conditions: pair with 12942, PBMC, 37C day 3
ZFN 25006 (synthetic) = conditions: pair with 12942, PBMC, 37C day 3
ZFN 25028 (synthetic) = conditions: pair with 12942, PBMC, 37C day 3
ZFN 25022 (synthetic) = conditions: pair with 12942, PBMC, 37C day 3
ZFN 25015 (synthetic) = conditions: pair with 12942, PBMC, 37C day 3; helices printed identical to 25014
ZFN 25040 (synthetic) = conditions: pair with 12942, PBMC, 37C day 3
ZFN 18759 (synthetic) = conditions: pair with 12942, PBMC, 37C day 3
ZFN 25029 (synthetic) = conditions: pair with 12942, PBMC, 37C day 3
ZFN 25027 (synthetic) = conditions: pair with 12942, PBMC, 37C day 3
ZFN 25011 (synthetic) = conditions: pair with 12942, PBMC, 37C day 3
ZFN 25017 (synthetic) = conditions: pair with 12942, PBMC, 37C day 3
ZFN 25034 (synthetic) = conditions: pair with 12942, PBMC, 37C day 3
ZFN 25016 (synthetic) = conditions: pair with 12942, PBMC, 37C day 3
ZFN 25036 (synthetic) = conditions: pair with 12942, PBMC, 37C day 3; helices printed identical to 25031
ZFN 25005 (synthetic) = conditions: pair with 12942, PBMC, 37C day 3
ZFN 25030 (synthetic) = conditions: pair with 12942, PBMC, 37C day 3; F3 printed RPMHUTN
ZFN 25014 (synthetic) = conditions: pair with 12942, PBMC, 37C day 3
ZFN 25032 (synthetic) = conditions: pair with 12942, PBMC, 37C day 3
ZFN 25025 (synthetic) = conditions: pair with 12942, PBMC, 37C day 3
ZFN 12942 (synthetic) = conditions: pair with 12947, day 3, K562
ZFN 12971 (synthetic) = conditions: pair with 12934, day 3, K562
ZFN 12972 (synthetic) = conditions: pair with 12934, day 3, K562
ZFN 12934 (synthetic) = conditions: pair with 12971 or 12972, day 3, K562

For “CAGTCGTCTGGGCGGTGCT (double strand) [PD1 exon 1 18759/250xx site]”, the activity (ZFN 25031 (synthetic)) was 9.4 % NHEJ, the activity (ZFN 25012 (synthetic)) was 5.9 % NHEJ and the activity (ZFN 25023 (synthetic)) was 3.1 % NHEJ. The activity (ZFN 25010 (synthetic)) was 4.9 % NHEJ, the activity (ZFN 25013 (synthetic)) was 3.7 % NHEJ and the activity (ZFN 25041 (synthetic)) was 7.9 % NHEJ. For the same sequence, the activity (ZFN 25006 (synthetic)) was 2.9 % NHEJ, the activity (ZFN 25028 (synthetic)) was 4.3 % NHEJ and the activity (ZFN 25022 (synthetic)) was 3.6 % NHEJ. The activity (ZFN 25015 (synthetic)) was 3.9 % NHEJ, the activity (ZFN 25040 (synthetic)) was 6.1 % NHEJ and the activity (ZFN 18759 (synthetic)) was 4.7 % NHEJ. It also gave an activity (ZFN 25029 (synthetic)) of 8.1 % NHEJ, an activity (ZFN 25027 (synthetic)) of 6 % NHEJ and an activity (ZFN 25011 (synthetic)) of 3.1 % NHEJ. The activity (ZFN 25017 (synthetic)) was 7.7 % NHEJ, the activity (ZFN 25034 (synthetic)) was 4.9 % NHEJ and the activity (ZFN 25016 (synthetic)) was 7.3 % NHEJ. For the same sequence, the activity (ZFN 25036 (synthetic)) was 8.3 % NHEJ, the activity (ZFN 25005 (synthetic)) was 4.4 % NHEJ and the activity (ZFN 25030 (synthetic)) was 7.6 % NHEJ. It also gave an activity (ZFN 25014 (synthetic)) of 10.7 % NHEJ, an activity (ZFN 25032 (synthetic)) of 6.7 % NHEJ and an activity (ZFN 25025 (synthetic)) of 8.8 % NHEJ.
With “CCAGGGCGCCTGTGGGATCTGCATGCCT (double strand) [PD1 exon 1 12942 site]” the activity (ZFN 12942 (synthetic)) was 10 % NHEJ.
For “CTGTGGACTATGGGGAGCTGGATTTCCA (double strand) [PD1 exon 5 12971/12972 site]”, the activity (ZFN 12971 (synthetic)) was 11 % NHEJ and the activity (ZFN 12972 (synthetic)) was 11 % NHEJ.
“GAACACAGGCACGGCTGAGGGGTCCTCC (double strand) [PD1 exon 5 12934 site]” was tested, and the activity (ZFN 12934 (synthetic)) was 11 % NHEJ.
